Values quoted from earlier work, collected in PMC3381941.
Where two headings read alike, the source gives them in different places.

Tests used:
[1] = target: Mtf1 (Saccharomyces cerevisiae) (UniProt P14908); assay: protein-protein crosslinking
[2] = target: Mtf1 (Saccharomyces cerevisiae) (UniProt P14908); assay: protein-protein crosslinking; remark: listed apart in the source

Chain of UniProt P14908 (P14908 2-341): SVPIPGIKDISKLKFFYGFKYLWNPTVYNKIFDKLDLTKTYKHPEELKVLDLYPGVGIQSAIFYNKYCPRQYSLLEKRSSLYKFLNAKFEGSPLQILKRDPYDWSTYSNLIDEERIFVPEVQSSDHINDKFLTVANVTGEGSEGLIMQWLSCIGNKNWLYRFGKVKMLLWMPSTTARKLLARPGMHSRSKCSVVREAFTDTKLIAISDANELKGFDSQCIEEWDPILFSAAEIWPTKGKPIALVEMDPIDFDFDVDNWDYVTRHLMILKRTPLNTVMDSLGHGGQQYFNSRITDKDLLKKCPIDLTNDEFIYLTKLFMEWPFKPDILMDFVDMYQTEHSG

**Q.** Which Kd [1] does the source give for Rpo41 (from UniProt P13433) here?
**A.** 400 nM

**Q.** And the Kd [2]?
**A.** 600 nM
